Data published in paper PMC10547376.

Molecular target: actively translating polysomes (cytosolic ribosomes) (human (endogenous in HeLa, HT29))
Assay: co-sedimentation

percent of total TRAP1 in the polysomal fractions: > 0.7%
B1: TRAP1 (endogenous) (natural protein)
chain: STQTAEDKEEPLHSIISSTESVQGSTSKHEFQAETKKLLDIVARSLYSEKEVFIRELISNASDALEKLRHKLVSDGQALPEMEIHLQTNAEKGTITIQDTGIGMTQEELVSNLGTIARSGSKAFLDALQNQAEASSKIIGQFGVGFYSAFMVADRVEVYSRSAAPGSLGYQWLSDGSGVFEIAEASGVRTGTKIIIHLKSDCKEFSSEARVRDVVTKYSNFVSFPLYLNGRRMNTLQAIWMMDPKDVREWQHEEFYRYVAQAHDKPRYTLHYKTDAPLNIRSIFYVPDMKPSMFDVSRELGSSVALYSRKVLIQTKATDILPKWLRFIRGVVDSEDIPLNLSRELLQESALIRKLRDVLQQRLIKFFIDQSKKDAEKYAKFFEDYGLFMREGIVTATEQEVKEDIAKLLRYESSALPSGQLTSLSEYASRMRAGTRNIYYLCAPNRHLAEHSPYYEAMKKKDTEVLFCFEQFDELTLLHLREFDKKKLISVETDIVVDHYKEEKFEDRSPAAECLSEKETEELMAWMRNVLGSRVTNVKVTLRLDTHPAMVTVLEMGAARHFLRMQQLAKTQEERAQLLQPTLEINPRHALIKKLNQLRASEPGLAQLLVDQIYENAMIAAGLVDDPRAMVGRLNELLVKALERH
